Test [1] addresses sEGFR domain III (residues 310-512) (human) (UniProt P00533). As to the kind of experiment: size exclusion chromatography (Superdex 200), 4 µM, domain III with Fab 425 and Fab C225 together. Background: SEC sorts molecules by how far they enter the pores of the column.
Test [2] concerns the target sEGFR domain III S460P/G461N (human) (UniProt P00533). As to the kind of experiment: size exclusion chromatography (Superdex 200), 4 µM; the individual proteins elute at 15.6 mL.
Test [3] concerns the target sEGFR domain III (residues 310-512) (human) (UniProt P00533). The test is described as above.

As for Fab 425, the elution volume of the tripartite complex in test [1] was 13.1 mL. In addition, in test [2], the elution volume of the mixture came to 15.2 mL. The substance further displayed an elution volume of the complex in test [3] of 13.9 mL.
